Experimental data published in paper PMC10462845 (Neoplasia (New York, N.Y.), 2023).

Key:
Assay in all cases: MST
[1] = biological target: T1, C-terminal BTB/POZ containing fragment of KCTD1 (BTB/POZ1) (UniProt Q719H9 1-257)
T1 sequence: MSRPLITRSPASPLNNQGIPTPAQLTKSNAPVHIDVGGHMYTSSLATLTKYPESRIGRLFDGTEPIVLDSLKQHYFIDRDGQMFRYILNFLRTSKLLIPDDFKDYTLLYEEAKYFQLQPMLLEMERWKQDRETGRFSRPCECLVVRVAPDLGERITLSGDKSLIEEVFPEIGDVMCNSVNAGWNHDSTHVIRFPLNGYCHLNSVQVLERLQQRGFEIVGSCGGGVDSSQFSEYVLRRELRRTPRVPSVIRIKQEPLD

[2] = biological target: BTB/POZ domain of KCTD15 (BTB/POZ15) (UniProt Q96SI1)
Sequence of BTB/POZ domain of KCTD15 (BTB/POZ15) (Q96SI1 whole entry, the tested form may be a part): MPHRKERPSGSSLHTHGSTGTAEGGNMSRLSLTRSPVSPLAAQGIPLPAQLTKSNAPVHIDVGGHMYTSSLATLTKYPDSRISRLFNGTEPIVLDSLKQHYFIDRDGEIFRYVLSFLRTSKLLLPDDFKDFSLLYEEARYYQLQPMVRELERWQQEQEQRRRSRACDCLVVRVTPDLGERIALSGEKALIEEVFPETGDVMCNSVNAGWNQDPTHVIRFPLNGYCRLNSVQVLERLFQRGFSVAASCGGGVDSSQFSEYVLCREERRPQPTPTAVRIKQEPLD

[3] = biological target: C-terminal BTB/POZ containing fragment of KCTD1 (BTB/POZ1) (UniProt Q719H9)

B1: BTB/POZ domain of KCASH1 (KCTD11) (BTB/POZ11) (domain or fragment)
chain: GPVTLNVGGTLYSTTLETLTRFPDSMLGAMFRAGTPMPPNLNSQGGGHYFIDRDGKAFRHILNFLRLGRLDLPRGYGETALLRAEADFYQIRPLLDALRELEASQG
Q: Which Kd [1] does the source give for B1 here?
A: 0.8 ± 0.1 µM

B2: KCASH2 (KCTD21), full length, recombinant (natural protein)
chain: MSDPITLNVGGKLYTTSLATLTSFPDSMLGAMFSGKMPTKRDSQGNCFIDRDGKVFRYILNFLRTSHLDLPEDFQEMGLLRREADFYQVQPLIEALQEKEVELSKAEKNAMLNITLNQRVQTVHFTVREAPQIYSLSSSSMEVFNANIFSTSCLFLKLLGSKLFYCSNGNLSSITSHLQDPNHLTLDWVANVEGLPEEEYTKQNLKRLWVVPANKQINSFQVFVEEVLKIALSDGFCIDSSHPHALDFMNNKIIRLIRYR
Q: With B2 as the binder, how does the Kd [2] read?
A: 6.6 µM

Q: And the Kd [3]?
A: 3.9 µM
